Assay results from patent US20230175069A1 (published 2023).

What was measured:
[1] = target: T1, SRC (SRC Proto-Oncogene, Non-Receptor Tyrosine Kinase) (human, UniProt P12931 2-536); assay: co-immunoprecipitation with anti-SRC antibody from T47D cells expressing wtCCDC170, western blot with anti-CCDC170 antibody
T1 construct: Endogenous protein of T47D cells, in cell lysate

[2] = target: T2, HER2 (Erb-B2 Receptor Tyrosine Kinase 2) (human, UniProt P04626 23-1255); assay: co-immunoprecipitation with anti-HER2 antibody from T47D cells expressing wtCCDC170, western blot with anti-CCDC170 antibody
T2 construct: Endogenous protein of T47D cells, in cell lysate; also called HER2/neu

[3] = target: T3, HER3 (Erb-B2 Receptor Tyrosine Kinase 3) (human, UniProt P21860 20-1342); assay: co-immunoprecipitation with anti-HER3 antibody from T47D cells expressing wtCCDC170, western blot with anti-CCDC170 antibody
T3 construct: Endogenous protein of T47D cells, in cell lysate; also called ErbB3

Measured: binding result

T3 sequence (P21860 20-1342 limits assumed): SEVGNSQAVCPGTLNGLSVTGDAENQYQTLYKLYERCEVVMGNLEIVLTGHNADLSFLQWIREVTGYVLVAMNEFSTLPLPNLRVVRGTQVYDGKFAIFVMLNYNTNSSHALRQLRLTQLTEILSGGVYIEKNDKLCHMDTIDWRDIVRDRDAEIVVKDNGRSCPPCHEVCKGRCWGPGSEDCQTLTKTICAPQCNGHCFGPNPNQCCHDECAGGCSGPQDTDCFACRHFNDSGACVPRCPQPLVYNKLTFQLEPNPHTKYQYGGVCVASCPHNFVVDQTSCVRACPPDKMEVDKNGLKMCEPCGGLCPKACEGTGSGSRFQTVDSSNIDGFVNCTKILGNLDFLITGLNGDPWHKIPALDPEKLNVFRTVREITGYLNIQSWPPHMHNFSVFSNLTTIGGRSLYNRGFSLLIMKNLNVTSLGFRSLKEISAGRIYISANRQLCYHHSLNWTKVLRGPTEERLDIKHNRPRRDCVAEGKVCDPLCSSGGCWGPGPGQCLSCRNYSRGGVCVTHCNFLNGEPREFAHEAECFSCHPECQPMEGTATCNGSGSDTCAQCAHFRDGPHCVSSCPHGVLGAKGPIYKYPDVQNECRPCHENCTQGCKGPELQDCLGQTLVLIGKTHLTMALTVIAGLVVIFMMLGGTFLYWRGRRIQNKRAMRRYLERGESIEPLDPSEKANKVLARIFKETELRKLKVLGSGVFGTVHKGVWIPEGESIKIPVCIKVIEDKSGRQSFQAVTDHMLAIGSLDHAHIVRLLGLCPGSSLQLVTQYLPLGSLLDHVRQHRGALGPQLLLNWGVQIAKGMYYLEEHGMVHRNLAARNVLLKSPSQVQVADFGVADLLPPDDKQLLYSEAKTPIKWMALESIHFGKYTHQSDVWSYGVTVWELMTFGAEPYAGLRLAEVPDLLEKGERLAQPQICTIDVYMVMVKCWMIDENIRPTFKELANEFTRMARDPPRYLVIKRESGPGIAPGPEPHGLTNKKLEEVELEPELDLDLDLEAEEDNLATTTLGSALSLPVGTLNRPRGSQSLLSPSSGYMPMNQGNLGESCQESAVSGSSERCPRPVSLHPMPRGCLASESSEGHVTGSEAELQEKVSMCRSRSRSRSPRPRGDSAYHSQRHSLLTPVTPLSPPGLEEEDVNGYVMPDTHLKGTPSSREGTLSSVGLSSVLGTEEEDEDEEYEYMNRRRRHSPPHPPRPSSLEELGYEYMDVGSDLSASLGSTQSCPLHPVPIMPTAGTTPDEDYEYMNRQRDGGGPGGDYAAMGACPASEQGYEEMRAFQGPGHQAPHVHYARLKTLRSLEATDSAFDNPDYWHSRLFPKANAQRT

B1: wild type CCDC170 (Coiled-Coil Domain Containing 170) (other)
chain: MSLDCTSHIALGAASPAPEETYDHLSEVPVTREQLNHYRNVAQNARSELAATLVKFECAQSELQDLRSKMLSKEVSCQELKAEMESYKENNARKSSLLTSLRDRVQELEEESAALSTSKIRTEITAHAAIKENQELKKKVVELNEKLQKCSKENEENKKQVSKNCRKHEEFLTQLRDCLDPDERNDKASDEDLILKLRDLRKENEFVKGQIVILEETINVHEMEAKASRETIMRLASEVNREQKKAASCTEEKEKLNQDLLSAVEAKEALEREVKIFQERLLAGQQVWDASKQEVSLLKKSSSELEKSLKASQDAVTTSQSQYFSFREKIAALLRGRLSMTGSTEDTILEKIREMDSREESRDRMVSQLEAQISELVEQLGKESGFHQKALQRAQKAENMLETLQGQLTHLEAELVSGGVLRDNLNFEKQKYLKFLDQLSQKMKLDQMAAELGFDMRLDVVLARTEQLVRLESNAVIENKTIAHNLQRKLKTQKERLESKELHMSLLRQKIAQLEEEKQARTALVVERDNAHLTIRNLQKKVERLQKELNTCRDLHTELKAKLADTNELKIKTLEQTKAIEDLNKSRDQLEKMKEKAEKKLMSVKSELDTTEHEAKENKERARNMIEVVTSEMKTLKKSLEEAEKREKQLADFREVVSQMLGLNVTSLALPDYEIIKCLERLVHSHQHHFVTCACLKDVTTGQERHPQGHLQLLH
notes: Ectopically expressed in T47D cells and assayed in cell lysate; also called wtCCDC170; WT
no binding: all assays above
